US20250074996A1 (Innovent, published 2025)

T1: Human BCMA-Bio (human, UniProt Q02223 1-54, biotin-labeled)
T1 construct: Bought antigen; also called human BCMA antigen (ACRO Biosystems)
T1 sequence (looked up): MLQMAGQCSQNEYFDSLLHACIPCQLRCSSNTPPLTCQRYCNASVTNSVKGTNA


Key:
[1] = target: T2, CD3E on the surface of Jurkat-NFAT-Luc cells (UniProt P07766 23-207); assay: cell-based or functional assay
[2] = target: T2, CD3E on the surface of Jurkat-NFAT-Luc …; assay: cell-based or functional assay; remark: listed apart in the source
human GPRC5D = target: T3, human GPRC5D (human, UniProt Q9NZD1 1-345); assay: flow cytometry on huGPRC5D GS-CHO cells
T3 construct: whole, on cells; also called huGPRC5D; G protein-coupled receptor family C group 5 member D
T3 sequence (Q9NZD1 whole entry): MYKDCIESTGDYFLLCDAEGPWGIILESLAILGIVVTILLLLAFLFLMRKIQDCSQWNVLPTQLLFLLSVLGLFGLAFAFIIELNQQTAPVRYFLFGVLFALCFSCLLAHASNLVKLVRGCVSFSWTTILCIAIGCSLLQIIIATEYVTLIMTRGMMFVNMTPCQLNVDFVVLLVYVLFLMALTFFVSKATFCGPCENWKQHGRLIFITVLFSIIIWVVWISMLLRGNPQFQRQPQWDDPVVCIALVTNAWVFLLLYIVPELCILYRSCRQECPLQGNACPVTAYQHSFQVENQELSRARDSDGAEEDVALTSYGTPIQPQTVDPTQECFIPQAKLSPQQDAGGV
Method: The affinity of the anti-GPRC5D antibody was detected by flow cytometry. Antibodies at various concentrations were co-incubated with cells expressing human GPRC5D, including GS-CHO cells overexpressing human GPRC5D (huGPRC5D GS-CHO), multiple myeloma cells MM1.R, H929 and AMO-1, for 30 min. A fluorescently-labeled secondary antibody (APC-mouse anti-human IgG Fc antibody, Biolegend, Cat #409306) was then added, the cell fluorescence intensity was detected using a Live/Dead yellow dead cell stain (Thermo Fisher, Cat #L34967) by flow cytometry, a curve was fitted using GraphPad Prism 8.0, and the EC50 value was calculated to show the binding affinity of the antibody to human GPRC5D.
In the exemplary trispecific antibodies, the binding affinities of the antigen-binding sites from the humanized antibodies hz5E12.1.P1 and hz11B7.5 to GPRC5D were detected.

Human BCMA-Bio = target: T1, Human BCMA-Bio; assay: BLI (Octet Red96e), SA or AHC sensors, 1:1 fit
Method: (§1) Sensors (Fortebio, Cat #18-5019) coupled to streptavidin protein (SA) or anti-human-Fc (AHC) were pre-wetted by immersion in 200 μL of SD buffer (1×PBS, 0.1% BSA, 0.05% tween-20). Exemplary antibodies and biotin-labeled or Fc-tagged BCMA and CD3D&E heterodimer antigens were diluted with SD buffer, respectively. 200 μL of SD buffer and diluted samples (100 nM) were taken and added to a 96-well black plate (Greiner, Cat #655209), respectively. The sensors and the samples were placed in Octet (Fortebio, Red96e). Data Acquisition 10.0 was executed and “New Kinetic Experiment” was selected. The sensors were arranged according to the positions of the samples, and the operation procedures and times were set as: Baseline 60 s, Loading 250 s, Baseline 100 s, Association 600 s and Dissociation 600 s. The experiment was conducted at a rotation speed of 1000 rpm and 30° C.
(§2) The results were analyzed in “Data Analysis 10.0” software, with the buffer reference channel being subtracted. 1:1 binding was selected to fit the data, and kₒₙ, koff, and KD values for the exemplary antibodies were calculated.
(§3) In the experiments performed according to the above-mentioned assay, the exemplary antibodies were detected using a human BCMA antigen (ACRO Biosystems) and a monkey BCMA antigen (ACRO Biosystems). The detection results of the affinities to human BCMA are shown in Table 6; and the detection results of the affinities to monkey BCMA are shown in Table 7.

Cyno BCMA-Fc = target: T4, Cyno BCMA-Fc (monkey (cyno), UniProt A0A2K5UD97 1-53); assay: BLI (Octet Red96e), SA or AHC sensors, 1:1 fit
T4 construct: also called monkey BCMA antigen (ACRO Biosystems); not shown: Fc tag of the bought antigen
T4 sequence (A0A2K5UD97 entry or part of it): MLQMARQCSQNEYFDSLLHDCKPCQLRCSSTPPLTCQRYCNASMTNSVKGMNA
Method: as §1, §2, §3

Human CD3D&E-Bio = target: T5, Human CD3D&E-Bio (human, UniProt P07766 23-126; P04234 22-105, biotin-labeled (site not stated)); assay: BLI (Octet Red96e), SA or AHC sensors, 1:1 fit
T5 construct: Bought heterodimer antigen; also called human CD3D&E heterodimer antigen (ACRO Biosystems); human CD3E
T5 sequence (P07766 23-126 limits assumed, chain 1 of 2): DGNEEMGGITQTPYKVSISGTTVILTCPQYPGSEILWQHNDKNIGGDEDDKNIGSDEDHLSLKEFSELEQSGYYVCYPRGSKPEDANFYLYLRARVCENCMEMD
T5 sequence (P04234 22-105 limits assumed, chain 2 of 2): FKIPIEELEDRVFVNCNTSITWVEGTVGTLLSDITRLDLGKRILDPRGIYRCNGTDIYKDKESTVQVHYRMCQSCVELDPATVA
Method: as §1, §2
(§4) In experiments performed according to the above-mentioned assay, the affinities of the exemplary antibodies were detected using a human CD3D&E heterodimer antigen (ACRO Biosystems) and a monkey CD3D&E heterodimer antigen (ACRO Biosystems). The binding affinities of GPRC5D×CD3 bispecific antibodies hz5E12.1-P1/SP34.24 and hz5E12.1-P1/SP34.87 to human/monkey CD3D&E were also detected.

Cyno CD3D&E-Bio = target: T6, Cyno CD3D&E-Bio (monkey (cyno), UniProt Q95LI5 22-117; Q95LI8 22-105, biotin-labeled (site not stated)); assay: BLI (Octet Red96e), SA or AHC sensors, 1:1 fit
T6 construct: Bought heterodimer antigen; also called monkey CD3D&E heterodimer antigen (ACRO Biosystems); monkey CD3E
T6 sequence (Q95LI5 22-117 limits assumed, chain 1 of 2): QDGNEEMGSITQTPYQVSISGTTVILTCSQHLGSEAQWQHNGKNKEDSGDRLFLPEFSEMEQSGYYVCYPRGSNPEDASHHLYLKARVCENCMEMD
T6 sequence (Q95LI8 22-105 limits assumed, chain 2 of 2): as the sequence (P04234 22-105 limits assumed, chain 2 of 2) above, with I5V, N15K, I20V, S32T, D33N, I34N, T64A, S74N, V83L counted along it
Method: as §1, §2, §4

T2 sequence (P07766 23-207): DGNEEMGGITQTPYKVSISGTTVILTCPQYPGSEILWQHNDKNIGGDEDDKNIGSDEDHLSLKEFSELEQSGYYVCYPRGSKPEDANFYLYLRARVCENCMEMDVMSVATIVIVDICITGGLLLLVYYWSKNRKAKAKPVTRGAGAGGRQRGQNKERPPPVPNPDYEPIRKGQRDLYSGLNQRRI

Row | Binder | EC50 of Jurkat-NFAT-Luc luciferase activation; tumor cells 8226 [1] | EC50 of Jurkat-NFAT-Luc luciferase activation; tumor cells H929 [1] | EC50 of Jurkat-NFAT-Luc luciferase activation; tumor cells L363 [1] | EC50 of Jurkat-NFAT-Luc luciferase activation; tumor cells U266 [1] | EC50 of Jurkat-NFAT-Luc luciferase activation; tumor cells ARD [2] | EC50 of Jurkat-NFAT-Luc luciferase activation; tumor cells MM.1S [2] | EC50 (human GPRC5D) | Kd (Human BCMA-Bio) | koff (Human BCMA-Bio) | kon (Human BCMA-Bio) | Kd (Cyno BCMA-Fc) | koff (Cyno BCMA-Fc) | kon (Cyno BCMA-Fc) | Kd (Human CD3D&E-Bio) | koff (Human CD3D&E-Bio) | kon (Human CD3D&E-Bio) | Kd (Cyno CD3D&E-Bio) | koff (Cyno CD3D&E-Bio) | kon (Cyno CD3D&E-Bio)
1 | TS-F2-4 (hz5E12.1.P1/SP34.24/38456) (antibody, human IgG1, kappa, lambda, L234A L235A) heavy 1: not shown light 1: DIVMTQSPDSLAVSLGERATINCRASESVDSYGITFMNWYQQKPGQPPKLLIYAASNQGSGVPDRFSGSGSGTDFTLTISSLQAEDVAVYYCQQSKEVPWTFGQGTKLEIKRTVAAPSVFIFPPSDEQLKSGTASVVCLLNNFYPREAKVQWKVDNALQSGNSQESVTEQDSKDSTYSLSSTLTLSKADYEKHKVYACEVTHQGLSSPVTKSFNRGEC heavy 2: not shown light 2: QAVVTQEPSLTVSPGGTVTLTCRSSTGAVTTSNYANWVQQKPGQAPRGLIGGTNKRAPGVPARFSGSLLGDKAALTLLGAQPEDEAEYYCALWYSNLWVFGQGTKLTVLGQPKAAPSVTLFPPSSEELQANKATLVCLISDFYPGAVTVAWKADSSPVKAGVETTTPSKQSNNKYAASSYLSLTPEQWKSHRSYSCQVTHEGSTVEKTVAPTECS | 0.00788 nM | 0.00738 nM | 0.00629 nM | 0.0503 nM | 0.00238 nM | 0.00179 nM | 40 nM | 2.27 nM | 0.000297 s⁻¹ | 131000 M⁻¹ s⁻¹ | 0.204 nM | 0.0002 s⁻¹ | 980000 M⁻¹ s⁻¹ | 22.1 nM | 0.00326 s⁻¹ | 147000 M⁻¹ s⁻¹ | 22.7 nM | 0.00301 s⁻¹ | 132000 M⁻¹ s⁻¹
2 | TS-F2-5 (hz5E12.1.P1/SP34.87/38456) (antibody, human IgG1, kappa, lambda, L234A L235A) heavy 1: not shown light 1: DIVMTQSPDSLAVSLGERATINCRASESVDSYGITFMNWYQQKPGQPPKLLIYAASNQGSGVPDRFSGSGSGTDFTLTISSLQAEDVAVYYCQQSKEVPWTFGQGTKLEIKRTVAAPSVFIFPPSDEQLKSGTASVVCLLNNFYPREAKVQWKVDNALQSGNSQESVTEQDSKDSTYSLSSTLTLSKADYEKHKVYACEVTHQGLSSPVTKSFNRGEC heavy 2: not shown light 2: QAVVTQEPSLTVSPGGTVTLTCRSSTGAVTTSNYANWVQQKPGQAPRGLIGGTNKRAPGVPARFSGSLLGDKAALTLLGAQPEDEAEYYCALWYSNLWVFGQGTKLTVLGQPKAAPSVTLFPPSSEELQANKATLVCLISDFYPGAVTVAWKADSSPVKAGVETTTPSKQSNNKYAASSYLSLTPEQWKSHRSYSCQVTHEGSTVEKTVAPTECS | 0.0211 nM | 0.0178 nM | 0.0213 nM | 0.858 nM | 0.00696 nM | 0.00734 nM | 45 nM | 2.1 nM | 0.000279 s⁻¹ | 133000 M⁻¹ s⁻¹ | 0.21 nM | 0.0002 s⁻¹ | 950000 M⁻¹ s⁻¹ | 243 nM | 0.0188 s⁻¹ | 77500 M⁻¹ s⁻¹ | 220 nM | 0.0173 s⁻¹ | 78600 M⁻¹ s⁻¹
